Publication doi:10.1101/2025.11.10.687516 (bioRxiv, 2025)
Several values for one entry are separate records, joined by “and”; a condition that tells them apart may be missing. Identical values can stand only once. Like-named read-outs stand apart in the source and are kept apart here.

B1: GrxB (natural protein, E. coli, UniProt P0AC59 1-215, looked up)
chain: MKLYIYDHCPYCLKARMIFGLKNIPVELHVLLNDDAETPTRMVGQKQVPILQKDDSRYMPESMDIVHYVDKLDGKPLLTGKRSPAIEEWLRKVNGYANKLLLPRFAKSAFDEFSTPAARKYFVDKKEASAGNFADLLAHSDGLIKNISDDLRALDKLIVKPNAVNGELSEDDIQLFPLLRNLTLVAGINWPSRVADYRDNMAKQTQINLLSSMAI
B2: D-tagatose-1,6-bisphosphate aldolase subunit GatZ (natural protein, E. coli, UniProt P0C8J8 1-420, looked up)
chain: MKTLIARHKAGEHIGICSVCSAHPLVIEAALAFDRNSTRKVLIEATSNQVNQFGGYTGMTPADFREFVFTIADKVGFARERIILGGDHLGPNCWQQENADAAMEKSVELVKEYVRAGFSKIHLDASMSCAGDPIPLAPETVAERAAVLCFAAESVATDCQREQLSYVIGTEVPVPGGEASAIQSVHITHVEDAANTLRTHQKAFIARGLTEALTRVIAIVVQPGVEFDHSNIIHYQPQEAQPLAQWIENTRMVYEAHSTDYQTRTAYWELVRDHFAILKVGPALTFALREAIFALAQIEQELIAPENRSGCLAVIEEVMLDEPQYWKKYYRTGFNDSLLDIRYSLSDRIRYYWPHSRIKNSVETMMVNLEGVDIPLGMISQYLPKQFERIQSGELSAIPHQLIMDKIYDVLRAYRYGCAE
B3: PhnO (natural protein, UniProt P16691 1-144, looked up)
chain: MPACELRPATQYDTDAVYALICELKQAEFDHHAFRVGFNANLRDPNMRYHLALLDGEVVGMIGLHLQFHLHHVNWIGEIQELVVMPQARGLNVGSKLLAWAEEEARQAGAEMTELSTNVKRHDAHRFYLREGYEQSHFRFTKAL

Tests used:
SEC [1] = biological target: the molecule itself; assay: SEC
SEC [2] = biological target: the molecule itself; assay: SEC; remark: listed apart in the source

Row | Protein | stoichiometry N (SEC [1]) | stoichiometry N (SEC [2])
1 | B1 | 2 | 
2 | B2 | 2 and 4 | 
3 | B3 |  | 2
